The record followed here is article PMC4764553 (eLife, 2016).

This test addresses T1, Human nucleosome core particle (human histone octamer with the 147-bp Widom 601 DNA) (human, UniProt P68431 1-136; P62805 1-103; P04908 1-130; P06899 1-126).
T1 construct: also called recombinant human NCP; human NCP
As to the kind of experiment: ITC. The conditions noted are these: both partners purified.

B1: IE1-CTD peptide (chromatin-tethering domain of hCMV IE1, a.a. 476–491) (peptide)
peptide: GGKSTHPMVTRSKADQ
B1: the equilibrium dissociation constant (Kd) was determined as 0.4 µM.

B2: IE1-CTD mutant lacking the N-terminal segment (Δ476–480) (peptide)
peptide: HPMVTRSKADQ
In turn, B2 had a Kd of 12 µM.

B3: Full-length hCMV (Towne) IE1 (natural protein)
chain: MESSAKRKMDPDNPDEGPSSKVPRPETPVTKATTFLQTMLRKEVNSQLSLGDPLFPELAEESLKTFERVTEDCNENPEKDVLAELVKQIKVRVDMVRHRIKEHMLKKYTQTEEKFTGAFNMMGGCLQNALDILDKVHEPFEEMKCIGLTMQSMYENYIVPEDKREMWMACIKELHDVSKGAANKLGGALQAKARAKKDELRRKMMYMCYRNIEFFTKNSAFPKTTNGCSQAMAALQNLPQCSPDEIMAYAQKIFKILDEERDKVLTHIDHIFMDILTTCVETMCNEYKVTSDACMMTMYGGISLLSEFCRVLSCYVLEETSVMLAKRPLITKPEVISVMKRRIEEICMKVFAQYILGADPLRVCSPSVDDLRAIAEESDEEEAIVAYTLATRGASSSDSLVSPPESPVPATIPLSSVIVAENSDQEESEQSDEEEEEGAQEEREDTVSVKSEPVSEIEEVAPEEEEDGAEEPTASGGKSTHPMVTRSKADQ
Consider B3, for which the “fold weaker binding than IE1-CTD alone” value is roughly 5 fold.
